This experiment addresses Tau and AD-associated Tau in brain tissue and brain extracts of patients with tauopathy (AD, PSP, PiD) (human, UniProt P10636-8 2-441, limits assumed, pathologically hyperphosphorylated and aggregated; the sites are not specified). As to the kind of experiment: cell-based or functional assay.

Consider two molecules from patent US20240309076A1 (REGENXBIO, published 2024).

Chain of Tau and AD-associated Tau in brain tissue and brain extracts of patients with tauopathy (AD, PSP, PiD) (P10636 other isoform, or with tags, fused parts or gaps limits assumed): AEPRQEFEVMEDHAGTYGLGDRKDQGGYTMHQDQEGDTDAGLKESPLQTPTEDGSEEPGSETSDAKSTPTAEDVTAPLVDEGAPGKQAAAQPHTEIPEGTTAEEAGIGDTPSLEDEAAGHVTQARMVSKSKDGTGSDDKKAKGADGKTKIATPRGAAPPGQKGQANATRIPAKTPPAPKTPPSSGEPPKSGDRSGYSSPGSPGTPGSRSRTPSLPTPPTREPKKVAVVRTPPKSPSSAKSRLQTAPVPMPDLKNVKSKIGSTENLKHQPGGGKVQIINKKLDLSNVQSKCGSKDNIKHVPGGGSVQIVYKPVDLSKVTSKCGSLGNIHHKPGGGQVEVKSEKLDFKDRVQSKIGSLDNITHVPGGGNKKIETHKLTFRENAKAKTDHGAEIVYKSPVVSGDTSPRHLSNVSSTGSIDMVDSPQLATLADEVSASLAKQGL

B1: NI-502.8H1 (antibody, V domains shown)
VH: EVQLVESGGGLVQPGGSLRLSCAASGFTFSIYTMSWVRQAPGKGLEWVSAILSDGSTYYADSVEGRFTISRDNSKTTLYLQMNSLTAEDTAVYYCTKRVEGSFRGWGQGTLVTVSS
VL: EIVMTQSPGTLSLSPGESATLSCRASQSVSTTYLAWYQQKPGQAPRLLIYGASSRATGIPDRFSGSGSGTDFTLTISRLEPEDFAVYYCQQYGGSRLITFGQGTRLEIK
Take B1: the “IC50 of Tau aggregation (integrated FRET density) in HEK293T Tau biosensor cells after immunodepletion of AD brain homogenate” value was found to be 7.1 µg/mL.

B2: NI-502.4P3 (antibody, V domains shown)
VH: EVQLVQSGAEVKKPGESLKISCKVSGYDFSKYWIGWVRQMPGKGLEWMGLIYPGDSDTRYSPSLEGQVSISADKSISAAYLQFSSLKASDSAMYYCVRKGYSAYLGGWFDPWGQGTLVTVSS
VL: DIQLTQSPDSLAASLGERVTINCRSSQNIFYNSNNKNFLAWYQQKAGQSPKLLIYWASTRESGVPDRFSGSGSGTDFTLTISGLQAGDVAVYFCQQYFTDAPTFGGGTKVEIK
In the case of B2, the “IC50 of Tau aggregation (integrated FRET density) in HEK293T Tau biosensor cells after immunodepletion of AD brain homogenate” value was found to be 6.5 µg/mL.
